In patent publication US20030148957A1 (PROCTER AND GAMBLE, published 2003):
Ends that are not written are not given here.

Biological target: T1, CRF2R
T1 sequence (Q13324 whole entry, species assumed, looked up): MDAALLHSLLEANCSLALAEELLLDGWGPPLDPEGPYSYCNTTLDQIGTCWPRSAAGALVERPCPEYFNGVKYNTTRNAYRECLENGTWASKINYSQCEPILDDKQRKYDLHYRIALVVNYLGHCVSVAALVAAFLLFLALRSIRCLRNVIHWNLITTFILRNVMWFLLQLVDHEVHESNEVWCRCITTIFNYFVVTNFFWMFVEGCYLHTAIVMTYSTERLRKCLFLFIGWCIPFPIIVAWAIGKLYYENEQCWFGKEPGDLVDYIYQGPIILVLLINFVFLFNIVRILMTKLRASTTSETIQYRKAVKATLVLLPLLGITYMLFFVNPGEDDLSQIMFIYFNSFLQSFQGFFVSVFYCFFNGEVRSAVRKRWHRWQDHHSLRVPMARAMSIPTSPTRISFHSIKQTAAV
Assay: cell-based or functional assay

B1: SEQ ID NO 1 (peptide)
peptide: IVLSLDVPIGLLQELLEMARAEQLAQQAHSNRKLMEII-NH2
How did the “CRF2R (Emax %)” value turn out when B1 was run?
Its value is 100%.
